Measured values as given in patent publication US20220195015A1 (published 2022).

Target: SARS-CoV-2 spike receptor binding domain (RBD), S protein residues 319-539 (SARS-CoV-2, UniProt P0DTC2 319-539)
Test: ELISA on coated RBD

B1: C077 (antibody, V domains shown)
VH: QVQLVQSGAEVKKPGASVKVSCKASGYTFTSYAMHWVRQAPGQRLEWMGWINTDNGNTKYSQKFQGRVTITRDTSASTAYMELSSLRSEDTAVYYCAREGALTNWFDPWGQGTLVTVSS
VL: SYELTQPPSVSVAPGQTARIPCGGNNIGSKSVHWYQQKPGQAPVLVVYDDSDRPSGIPERFSGSNSGNTATLTISRVEAGDEADYYCQVWDSSSDLHVVFGGGTKLTVL
EC50: 45.9 ng/mL

B2: C507 (antibody, V domains shown)
VH: EVQLVESGGGVVQPGRSLRLSCAASGFTFSSYAIHWVRQAPGKGLEWVAVISFDGSNKYYRDSVKGRFTISRDNGKNTLYLQMNSLRAEDTAVYYCAKAALGYCTNGVCYCDNWGQGTLVTVSS
VL: NFMLTQPHSVSESPGKTVTISCTGSSGSIASNYVQWYQQRPGSAPTTVIYEDNQRPSGVPDRFSGSIDSSSNSASLSISGLKTEDEADYYCQSYDINSLWVFGGGTRLTVL
EC50: 5.6 ng/mL

B3: C597 (antibody, V domains shown)
VH: QVQLVQSGPEVKKPGTSVKVSCKASGFTFTNSAVQWVRQSRRQRLEWIGWIVVGSGNTNYAQKFQERVTITRDMSTSTAYMELSSLRSEDTAVYYCAAVDCNSTSCYDAFDIWGQGTMVTVSS
VL: EIVLTQSPGTLSLSPGERATLSCRASQSFRSSYLAWYQQKPGQAPRLLIYGASSRATGIPDRFSGSGSGSDFTLTISRLEPEDFAVYYCQQYDISPWTFGQGTKVEIK
EC50: 3.77 ng/mL

B4: C598 (antibody, V domains shown)
VH: QVQLVQSGPEVKKPGTSVKVSCKASGFTFSSSAVQWVRQARGQRLEWIGWIVVGSGNTNYAQKFQERVTITRDMSTSTAYMELSSLRSEDTAVFYCAAPYCNVTTCFDGFNIWGRGTMVTVSS
VL: EIVLTQSPGTLSLSPGERATLSCRASQSVRSSYFAWYQQKPGQAPRLLIYAASSRATGIPDRFSGSGSGTDFTLTISRLEPEDFALYYCQQYGSSPWTFGQGTKVEIK
EC50: 3.78 ng/mL

B5: C515 (antibody, V domains shown)
VH: EVQLVESGGGLVQPGGSLRLSCAASGFIVSSNYMSWVRQAPGKGLEWVSILYSGGSTYYADSVKGRFTISRDNSKNTLYLQMNSLRAEDTAVYYCARDLVVYGADYWGQGTLVTVSS
VL: DIQLTQSPSFLSASVGDRVTITCRASQGISSYLAWYQQKPGKAPKLLIYAASTLQSGVPSRFSGSGSGTEFTLTISSLQPEDFATYYCQQLNSYPPPFGGGTKVEIK
EC50: 1.73 ng/mL

B6: C511 (antibody, V domains shown)
VH: EVQLVESGGGLVQPGGSLRLSCAATEITVSSNYMTWVRQAPGKGLEWVSVIYPGGSTFYADSVKGRFSISRDNSKNTLYLQMNSLRAEDTAVYYCARDLVVYGLDCWGQGTLVTVSS
VL: DIQLTQSPSFLSASVGDRVTITCRASQGISSYLAWYQQKPGKAPKLLIYAASTLQSGVPSRFSGSGSGTEFTLTISSLQPEDFATYYCQQLNTYPPPFGGGTKVEIK
EC50: 1.33 ng/mL

B7: C505 (antibody, V domains shown)
VH: EVQLLESGGGLVQPGGSLRLSCADSGFSFSTYGMSWVRQAPGKGLEWVSTISGSGDNTYHADSVKGRFTISRDNSKNTLYLQMNSLRAEDTAVYYCAKNIAEMSTFDDYFYYYGMDVWGQGTTVTVSS
VL: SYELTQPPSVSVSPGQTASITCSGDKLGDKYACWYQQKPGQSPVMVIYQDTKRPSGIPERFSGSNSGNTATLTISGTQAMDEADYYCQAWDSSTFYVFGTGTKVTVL
EC50: 9.08 ng/mL

B8: C132 (antibody, V domains shown)
VH: QVQLQESGPGLVKPSGTLSLTCAVSGGSISSNNWWSCVRQPPGKGLEWIGEIYHSGSTNYNPSLKSRVTISVDKSKNQFSLKLSSVTAADTAVYYCARGGDTAMGPEYFDYWGQGTLVTVSS
VL: QSALTQPASVSGSPGQSITISCTGTSSDVGGYNYVSWYQQHPGKAPKLMIYDVSNRPSGVSNRFSGSKSGNTASLTISGLQAEDEADYYCSSYTSSSTLLFGGGTKLTVL
EC50: 3.56 ng/mL

B9: C512 (antibody, V domains shown)
VH: QVQLQESGPGLVKPSGTLSLTCAVSAGSISSNNWWSWVRQPPGKGLEWIGEVYHNGNINYNPSLKSRVTLSVDKSKNQFSLKLSSVTAADTAVYYCAKGGDRAMGPEYFDSWGQGTLVTVSS
VL: QSALTQPASVSGSPGQSITISCTGTSSDVGANNYVSWYQQHPGKAPKLMIYDVNERPSGVSNRFSGSKSGNTASLTISGLQTEDEADYYCSSFASSSTLLFGGGTKLTVL
EC50: 1.68 ng/mL

B10: C517 (antibody, V domains shown)
VH: EVQLVESGGGLVQPGGSLRLSCAASEFIVSRNYMSWVRQAPGKGLEWVSLIYSGGSTYYADSVKGRFTISRDNSKNTLYLQMNSLRAEDTAMYYCARDIAGRLDYWGQGTLVTVSS
VL: DIQMTQSPSSLSASVGDRVTITCQASQDISKYLNWYQQKPGKAPKLLIYDASNLETGVPSRFSGSGSGTDFTFTISSLQPEDFATYYCQHYDSLSRLTFGGGTKVEIK
EC50: 0.87 ng/mL

B11: C514 (antibody, V domains shown)
VH: EVQLVESGGGLVQPGGSLRLSCAASEFIVTRNYMSWVRQAPGKGLEWVSLIYPGGSTFYADSVKGRFTISRDNSKNTLFLHMNSLRAEDTAVYYCARDLAGRLDYWGQGTLVTVSS
VL: DIQMTQSPSSLSASVGDRVTITCQASQDINNFLNWYQQKPGKAPKLLIYDASNLETGVPSRFSGSGSGTDFTFTISSLQPEDIAIYYCQQYDSLSRLTFGGGTKVEIK
EC50: 0.82 ng/mL

B12: C547 (antibody, V domains shown)
VH: QVQLVESGGGVVQPGRSLRLSCAASGFTFSSYGMHWVRQAPGKGLEWVAVISYDGSNKYYADSVKGRFTISRDNSKNTLYLQMNSLRAEDTAVYYCAKDTPGGDDILTGWGLYGMDVWGQGTTVTVSS
VL: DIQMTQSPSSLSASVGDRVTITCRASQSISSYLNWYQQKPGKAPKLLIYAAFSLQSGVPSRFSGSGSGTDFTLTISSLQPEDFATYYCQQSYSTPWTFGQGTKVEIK
EC50: 1.78 ng/mL

B13: C503 (antibody, V domains shown)
VH: QVQLQESGPGLVQPSGTLSLSCTVTGGSISSNNWWSWVRQSPVKGLEWIGEIYHNGNINYNPSLKSRVTMSIDKSKNHFSLKLSSVTAADTAVYYCARGDVLDWFDPWGQGTLVTVS
VL: QSALTQPASVSGSPGQSITFSCTGTSSDVGAYNYISWYQQHPGKAPKLMIYDVNNRPSGVSRRFSGSKSGNTASLTISGLQSEDEADYFCSSYAGNSTVRFGGGTKLTVL
EC50: 6.48 ng/mL

B14: C506 (antibody, V domains shown)
VH: EVQLVESGGGLVQPGGSLRLSCAASGFTFSSYDMHWVRQGTGKGLEWVSVIGTAGDAYYPGSVKGRFTISRENAKNSLYLQMNSLRAGDTAVYYCARMVYDSSGFKGYFDLWGRGTLVTVSS
VL: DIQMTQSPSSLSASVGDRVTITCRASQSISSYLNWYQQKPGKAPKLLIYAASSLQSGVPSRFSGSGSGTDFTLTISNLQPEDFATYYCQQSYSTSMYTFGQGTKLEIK
EC50: 16 ng/mL

B15: C504 (antibody, V domains shown)
VH: QVQLQESGPGLVKPSETLSLTCTVSGGSISSSYWNWIRQSPGKGLEWIGYIYYDGYTTFNPSLKSRVTISVDTSKNQFSLKLSSVTAADTAFYYCAAGLKGRSSSWYEYWGQGTLVTVSS
VL: DIQMTQSPSSLSASVGDRVTITCRASQSISSYLNWYQQKPGKAPKLLIYATSSLQSGVPSRFSGSGSGTDFTLTITSLQPEDFATYYCQQTYSSPHTFGQGTKLEIK
EC50: 6.55 ng/mL

B16: C513 (antibody, V domains shown)
VH: EVQLLESGGGLVQPGGSLRLSCVASGFSFSTYAMSWVRQAPGQGLEWVSTITGTSIGTYYADSVKGRFTISRDNSKNTVFLQMKSLRAEDAAVYYCANHPLASGDEYYYYYMDVWGKGTTVTVSS
VL: EIVLTQSPDTLSLSPGERATLSCRASQSVHSKQLAWYQQKPGQAPRLLIYGASSRATGIPDRFSGSGSGTDFTLTISRLEPEDFAVYYCQQYGSIRALTFGGGTKVEIK
EC50: 1.31 ng/mL

B17: C510 (antibody, V domains shown)
VH: QVQLQQWGAGLLKPSETLSRTCAVYGGSFSGYYWSWFRQSPGKGLEWIGEINHSGSTNYNPSLKNRVTISVDTSKNQFSLMLSSVTAADTAVYYCARGGFGVVINYYYSGMDVWGRGTTVTVSS
VL: not shown
EC50: 5.94 ng/mL

B18: C509 (antibody, V domains shown)
VH: QVQLQESGPGLVKPSGTLSLTCAVSGGSISSSNWWSWVRQPPGKGLEWIGEIYNSGSTNYNPSLKSRVTILVDKSKNQFSLKLSSVTAADTAVYYCAGSYSNYIGGVWFDPWGQGTLVTVSS
VL: EIVLTQSPATLSLSPGERATLSCRASQSVSTYLAWYQQKPGQAPRLLIYDASNRATGIPARFSGSGSGTDFTLTISSLEPEDFAVYYCQQRNNWLTFGGGTKVEIK
EC50: 4.44 ng/mL

B19: C516 (antibody, V domains shown)
VH: QVQLVQSGAEVKKPGSSVKVSCKASGGTFSSYAISWVRQAPGQGLEWMGRIIPMLVIATYARKFQGRVTITADKSTSTAYMELSSLRSEDTAVYYCARGVVAATPGNFDIWGQGTMVTVSS
VL: EIVMTQSPATLSVSPGERATLSCRASQSVSSNLAWYQQKPGQAPRLLIYGASTRATGIPARFSGSGSGTEFTLTISSLQSEDFAVYYCQQYNNGLTFGGGTKVEIK
EC50: 5.72 ng/mL

B20: C502 (antibody, V domains shown)
VH: QVQLVQSGAEVKKPGSSVKVSCKASGDTFSSHAINWVRQAPGQGLEWMGRSIPMLGVTTSAQKFKGRVTITADHSTSTVFMDLSSLRSDDTAIYYCARGVVGATPGSFDLWGQGTMVTVSS
VL: EIVMTQSPATLSVSPGKRATLSCRASQSVRSNLAWYQQRPGQAPRLLIYDAATRATGIPTRFSGSGSGTEFTLTISSLQSEDFAVYYCQQYDNGLTFGGGTKVEIK
EC50: 6.48 ng/mL

B21: C540 (antibody, V domains shown)
VH: EVQLVESGGGLVQPGGSLRLSCAASGFTFRNYDMHWVRQVAGKGLEWVSAIGTSGDTYYPDSVKGRFTISRENAKNSVYLQMNNLRAGDTAVYFCVRDREISGWTGWYFDLWGRGTLVTVSS
VL: DIQMTQSPSSLSASVGDRVTITCRASQTIHNYLNWYQQIPGKAPRLLIYATNTLQSGVPSRFSGSGSGTDFTLTITGLQPEDFATYYCQQSYSTPPITFGQGTRLEIK
EC50: 2.9 ng/mL

B22: C539 (antibody, V domains shown)
VH: EVQLVESGGGLVQPGRSLRLSCAASGFTFDDYALHWVRQAPGKGLEWVSGISWNGDSIGYADSVKGRFTISRDNAKNSLSLQMNSLTAEDTALYYCAKGVEYSSSSNCDYWGQGTLVTVSS
VL: DIQMTQSPSSVSASVGDRVTITCRASQDISSWLAWYQQKPGKAPKLLISLASGLQSGVPSRFSGSGSETDFTLTISSLQPEDFATYYCQQTNSFPLTFGGGTKVEI
EC50: 1.3 ng/mL

B23: C073 (antibody, V domains shown)
VH: QLQLQESGPGLVKPSETLSLTCTVSGASIPSSTSYWGWIRQPPGKGLEWIGSIYYTGSTYYNPSLKSRVTISVDTSKNHFSLILSSVTAADTAVYYCARRSITLAGRDCLDFWGQGTLVTVSS
VL: DIQLTQSPSSLSASVGDRLTITCRASQSITTSLNWYQQKPGKAPKLLIYAASSLQSGVPSRFSGSGSGTDFTLAISSLQPEDFATYYCQQSYIPLLTFGGGTKVDIK
EC50: 20.6 ng/mL
